“Also recorded” adds a separate entry of the source.
T1: human SAS1B (Homo sapiens, UniProt Q6HA08)
T1 construct: made in house; host or cells: E. coli
T1 sequence (Q6HA08 24-431): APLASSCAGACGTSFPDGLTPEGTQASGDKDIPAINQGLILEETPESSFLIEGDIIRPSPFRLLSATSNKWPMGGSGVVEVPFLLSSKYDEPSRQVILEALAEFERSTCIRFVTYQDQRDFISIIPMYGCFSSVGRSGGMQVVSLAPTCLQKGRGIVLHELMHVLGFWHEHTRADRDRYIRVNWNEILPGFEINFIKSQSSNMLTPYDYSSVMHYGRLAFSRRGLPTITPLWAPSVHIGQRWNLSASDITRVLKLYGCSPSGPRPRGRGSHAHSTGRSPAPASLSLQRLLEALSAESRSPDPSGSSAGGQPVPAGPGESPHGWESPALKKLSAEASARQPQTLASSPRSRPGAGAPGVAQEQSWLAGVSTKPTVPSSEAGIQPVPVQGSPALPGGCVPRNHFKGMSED

T2: human SAS1B protein with a C-terminal V5 tag expressed by HEK293T cells (Homo sapiens, UniProt Q6HA08)
T2 construct: expressed in transfected cells; host or cells: HEK293T
T2 sequence (Q6HA08 24-431): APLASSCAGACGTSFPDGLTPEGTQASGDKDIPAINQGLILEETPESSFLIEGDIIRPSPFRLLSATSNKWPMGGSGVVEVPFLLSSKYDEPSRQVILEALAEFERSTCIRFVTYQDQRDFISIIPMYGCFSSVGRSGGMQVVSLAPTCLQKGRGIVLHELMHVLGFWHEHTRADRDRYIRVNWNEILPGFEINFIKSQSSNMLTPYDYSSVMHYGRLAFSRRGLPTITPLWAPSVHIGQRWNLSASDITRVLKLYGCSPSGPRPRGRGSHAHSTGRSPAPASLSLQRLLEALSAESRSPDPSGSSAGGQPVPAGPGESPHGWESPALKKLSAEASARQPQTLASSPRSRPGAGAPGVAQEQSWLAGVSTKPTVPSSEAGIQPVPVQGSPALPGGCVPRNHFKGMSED


Key:
[1] = biological target: T1, human SAS1B; assay: Immunoprecipitation of SAS1B from HEK293T cells transfected with SAS1B; format: binding; conditions: for Pull down (immunoprecipitation) of SAS1B: HEK293T extract, western blot detection with anti-His mAb
Experimental: HEK293T cells were transfected with human SAS1B full length cDNA for 66 h. Immuno-precipitation of SAS1B was completed with SB1, SB2, SB4 and SB5 monoclonal antibodies. Following SAS1B immunoprecipitation, detection was completed with mouse anti-His tag mAb at C-terminus. Immunoprecipitated samples were analyzed by protein staining with Coomassie staining. Immunoprecipitated sample was also analyzed by MS/MS analysis. VH and VL chain CDR1-3 regions were sequenced for the confirmed anti-SAS1B mAbs. Immunoprecipitation was performed with N-terminal mAbs from transfected cells extracted with RIPA/protease inhibitor. Detection of the SAS1B immunoprecipitation product was completed with HRP peroxidase conjugated mouse anti-His mAb at 1:3000 or 1:5000 dilution. HEK293T cells were seeded at 250,000. The cells were transfected with […] of SAS1B-SVA plasmid into each of the two T-75 flasks (at ˜90% confluency) for ˜66 h at 37 C and 5% CO2. Following transfection, two saline washes were completed with 1×HBSS. Lysed cells were incubated with RIPA+protease inhibitor for one hour on ice with mixing to ensure homogenous lysate and supernatant used for IP (RIPA: 25 mM Tris-HCl (pH 7.6), 150 mM NaCl, 1% NP-40, 1% sodium deoxycholate, 0.1% SDS). For the immunoprecipitation, 3 mg magnetic bead coupled protein G were suspended and incubated with […] of each SAS1B monoclonal antibody for 10 minutes. The magnetic bead/antibody complex was washed with PBST once, followed by incubation with […] antigen extract for 20 min. The post-immunoprecipitation sample was saved for comparison. Three 200 mL washes with washing buffer+protease inhibitor were completed. The fourth wash used only 100 mL of wash buffer+protease inhibitor. The magnetic beads were transferred to a new micro-centrifuge tube. 1× Lamelli buffer was added to bead/antibody/antigen complex for subsequent analysis. The sample was boiled at 98° C. for 10 min in 1× Lamelli buffer and the supernatant transferred to a new tube. The immunoprecipitation sample was analyzed by western blot and Coomassie blue staining. The SDS-PAGE samples (pre-IP, IP, and post IP extracts) were resolved with 12% TGX Criterion gels at 30 milliamps for 1 hr. Coomassie stain was added to determine the profile of IP samples. Following SDS-PAGE resolution, bands were transferred to nitrocellulose membrane at 1 Amp for 1 h at 5° C. The membrane was blocked with 5% dry milk/PBST, and incubated with mouse anti-His monoclonal antibody conjugated with HRP for 1 hr at RT at 1:3000 or 1:5000 dilution. The membranes were imaged with TMB solution.
A unique ˜52 kD band was recovered in SB5 IP. SB5 (IgG2b) has a different isotype than SB1 (IgG2a), and 3A7 (IgG1). The ˜52 kD band from the SB5 immunoprecipitation was isolated, restained with Coomassie blue and submitted for MS/MS to verify protein identity. The MS/MS nanospray ion source was operated at 2.5 kV. The digest was analyzed using the rapid switching capability of the instrument acquiring a full screen mass spectrum to determine peptide molecular weights followed by product ion spectra to determine amino acid sequence in sequential scans. This mode of analysis produces about 20,000 MS/MS spectra of ions ranging in abundance over several orders of magnitude. Not all MS/MS spectra are derived from peptides. The data were analyzed using the Sequest search algorithm against Uniprot Human and SwissProt.

[2] = biological target: T1, human SAS1B; assay: Western blot of human SAS1B probed with anti-human SAS1B murine mAbs; format: binding; conditions: for Specifically binds human SAS1B (and not mouse SAS1B): Table 1
Text: A western blot of human SAS1B and mouse SAS1B was probed with anti-human SAS1B murine monoclonal antibodies SB1, SB2, SB3, SB4, SB5, SB6, and SB7.

[3] = biological target: T2, human SAS1B protein with a C-terminal V5 tag expressed by HEK293T cells; assay: Double immunofluorescence on fixed and permeabilized HEK293T cells transfected with SAS1B SV-A with V5 tag; format: cell-based; conditions: for IF signal / colocalization with V5-tag epitope signal: SV-A transfected HEK293T, PFA fixed, methanol permeabilized, mAbs at 10 ug/ml
Experimental: Experiments were conducted to determine the specificity of anti-human SAS1B monoclonal antibodies SB1, SB2, SB3, SB4, SB5, SB6 and SB7 against the human SAS1B protein with a C-terminal V5 tag expressed by HEK293T cells by double immuno-fluorescence from two different SAS1B epitopes. HEK293T cells were seeded at ˜100,000 per well of a 24 well plate containing a lysine-coated 12 mm coverslip. 24 hours later, the cells were transfected with 1 ug of SV-A plasmid with 2 ul of TURBOFECT® transfection reagent followed by no change of media. 48 h later the cells were PFA (paraformaldehyde) fixed and methanol permeabilized for an IF study as follows.
The cells were removed from cell culture media and fixed in 4% PFA in PBS, 300 ul for 15 min. The cells were washed in 1 ml PBS in wells for 3 times and permeabilized in methanol (100%) for 15 min in 0.5 ml at RT. The cells were washed in PBS 1 ml for 3 times and blocked in complete culture media (DMEM) with 5% normal goat serum (NGS) for 30 min (i.e. BB, blocking buffer). The first antibody in BB was added for 1 h at 10 ug/ml for mouse monoclonal antibodies (SB1, SB2, SB3, SB4, SB5, SB6, SB7) and 5 ug/ml for anti-V5 DYLIGHT® 488 (green) rabbit (a rabbit polyclonal antibody to V5 tag). The cells were washed in PBS 3 times. The second antibody in BB (Goat anti-mouse Alexa Flour 594, red) was added for 1 h at 5 ug/ml (1:200 dilution). The cells were washed in PBS 3 times. The cells were mounted in slow fade DAPI 3 ul and stored at 4° C. before confocal imaging.

| Molecule | Pull down (immunoprecipitation) of SAS1B [1] | Reactivity on western blot of human SAS1B and mouse SAS1B [2] | Specificity in western blot for human SAS1B antigen in an E. coli protein background [2] | Specifically binds human SAS1B (and not mouse SAS1B) [2] | IF signal / colocalization with V5-tag epitope signal [3] | Signal on mock transfected HEK293T cells [3] | Depletion of SAS1B in post IP sample compared to starting material [1] | MS/MS analysis of the IP sample (~52 kD band) [1] |
| --- | --- | --- | --- | --- | --- | --- | --- | --- |
| SB2: mouse anti-human SAS1B monoclonal antibody, IgG2b; VH SEQ ID NO:14, VL SEQ ID NO:15 (antibody, listed as Mus musculus, V domains shown) VH: EVQLQQSGPELVKPGSSVKISCKASGYTFTDYNMVWVKQSHGKSLEWIGAVNPNNGGTSYNQKFKGKATLTVDKSSSTAYMELRSLTSEDSAVYYCVPNWDWFAYWGQGTLVTVSA VL: DVLMTQTPLSLPVSLGDQASISCRSSQSLVHSNGNTYLEWYLQKPGQSPNLLIYKVSNRFSGVPDRFSGSGSGTDFTLKISRVEAEDLGVYYCFQGSHVPFTFGSGTKLEIK | pulled down recombinant SAS1B | specific to the human SAS1B only | demonstrated specificity | Yes | colocalize (merge) with V5-tag epitope signal | no V5 signal or SAS1B signal |  |  |
| SB3: mouse anti-human SAS1B monoclonal antibody, IgG2b; VH SEQ ID NO:14, VL SEQ ID NO:15 (antibody, listed as Mus musculus, V domains shown) VH: EVQLQQSGPELVKPGSSVKISCKASGYTFTDYNMVWVKQSHGKSLEWIGAVNPNNGGTSYNQKFKGKATLTVDKSSSTAYMELRSLTSEDSAVYYCVPNWDWFAYWGQGTLVTVSA VL: DVLMTQTPLSLPVSLGDQASISCRSSQSLVHSNGNTYLEWYLQKPGQSPNLLIYKVSNRFSGVPDRFSGSGSGTDFTLKISRVEAEDLGVYYCFQGSHVPFTFGSGTKLEIK | immunoprecipitate “native” SAS1B | specific to the human SAS1B only | demonstrated specificity | Yes | colocalize (merge) with V5-tag epitope signal | no V5 signal or SAS1B signal |  |  |
| SB5: mouse anti-human SAS1B monoclonal antibody, IgG2b; VH SEQ ID NO:16, VL SEQ ID NO:18 (antibody, listed as Mus musculus, V domains shown) VH: EVQLQQSGPELVKPGSSVKISCKPSGYTFTDYNMVWMKQSHGKSLEWIGAINPNNGGTTYNQKFKGKATLTVDKSSSTAYMELRSLTSEDSAVYYCAPNWDWFAYWGQGTLVTVSA VL: DVLMTQIPLSLPVSLGDQASISCRSSQSILHSNGNTYLEWYLQKPGQSPKLLIYKVSNRFSGVPDRFSGSGSGTDFTLKISRVEAEDLGVYYCFQGSHVPFTFGSGTKLEIK | pulled down; also recorded: immunoprecipitate “native” SAS1B | specific to the human SAS1B only | demonstrated specificity | Yes | colocalize (merge) with V5-tag epitope signal | no V5 signal or SAS1B signal | relative depletion of antigen in post IP samples | confirmed the specificity of the mAb for Human SAS1B protein |
| SB4: mouse anti-human SAS1B monoclonal antibody, IgG2a; VH SEQ ID NO:16, VL SEQ ID NO:17 (antibody, listed as Mus musculus, V domains shown) VH: EVQLQQSGPELVKPGSSVKISCKPSGYTFTDYNMVWMKQSHGKSLEWIGAINPNNGGTTYNQKFKGKATLTVDKSSSTAYMELRSLTSEDSAVYYCAPNWDWFAYWGQGTLVTVSA VL: DVLMTQTPLSLPVSLGDQASISCRSSQSILHSNGNTYLEWYLQKPGQSPKLLIYKVSNRFSGVPDRFSGSGSGTDFTLKISRVEAEDLGVYYCFQGSHVPFTFGSGTKLEIK | pulled down recombinant SAS1B; also recorded: immunoprecipitate “native” SAS1B | specific to the human SAS1B only | demonstrated specificity | Yes | colocalize (merge) with V5-tag epitope signal; also recorded: recognizing native SAS1B in fixed cells | no V5 signal or SAS1B signal | clear relative reduction of SAS1B |  |
| SB1: mouse anti-SAS1B monoclonal antibody, IgG2a; VH SEQ ID NO:12, VL SEQ ID NO:13 (antibody, listed as Mus musculus, V domains shown) VH: EVQLQQSGPELVKPGSSVKISCKASGYTFTDYNMDWVKQSHGKSLEWIGAINPNNGGTSYNQKFKGKATLTVDKSSSTAYMELRSLTSEDSAVYYCATNEYWGQGTTLTVSS VL: NIVMTQSPKSMSMSVGERVTLSCKASENVGTYVSWYQQKPEQSPKLLIYGASNRYTGVPDRFTGSGSATDFTLTISSVQAEDLADYHCGQSYSYPWTFGGGTKLEIK | pulled down | reacts with both human and mouse SAS1B | demonstrated specificity |  | lack of a signal | no V5 signal or SAS1B signal | relative depletion of antigen in post IP samples |  |

Reference: patent publication US20210269549A1, “ANTI-SAS1B ANTIBODIES, ASSOCIATED METHODS OF USE, AND COMPOSITIONS AND METHODS FOR DETECTING AND TREATING CANCER” (UNIVERSITY OF VIRGINIA PATENT FOUNDATION, priority 2015, published 2021)
